Target: ectodomain of human DPP4 (residues 39-766) (human, UniProt P27487 39-766)
Test: SPR

B1: MERS-CoV RBD (residues 367-588) (domain or fragment)
chain: EAKPSGSVVEQAEGVECDFSPLLSGTPPQVYNFKRLVFTNCNYNLTKLLSLFSVNDFTCSQISPAAIASNCYSSLILDYFSYPLSMKSDLSVSSAGPISQFNYKQSFSNPTCLILATVPHNLTTITKPLKYSYINKCSRFLSDDRTEVPQLVNANQYSPCVSIVPSTVWEDGDYYRKQLSPLEGGGWLVASGSTVAMTEQLQMGFGITVQYGTDTNSVCPKL
binding result: binds

From article PMC7104183 (Cell Reports, 2018)
